Laboratory results from PMC11137106.

The substances below were run against ribosomal protein L23 (E. coli (endogenous in A19 cell extract)) (UniProt P0ADZ0) (assay: cross-linking; zero-length EDC crosslinking of resuspended RNCs (ca. 30 nM) made in WT or Δtig A19 E. coli cell-free system (WT: TF 2–15 nM, DnaK 0.5 µM, DnaJ 0.04 µM, GrpE 0.05 µM), +/- puromycin; low-pH SDS-PAGE of the BODIPY-FL nascent chain and Western blots against L23, L24 and L29; percent crosslinking by ImageJ).

**Q.** What does the source list for “apoHmp_(1–189) ribosome-bound nascent chain (from UniProt P24232 1-189) (domain or fragment; other documents disagree on this pair)”?
**A.** % EDC crosslinking: 85%; normalized % EDC crosslinking (per EDC-reactive residue beyond the ribosomal tunnel core): 2.8%

**Q.** What does the source list for “apoHmp_(1–140) ribosome-bound nascent chain (from UniProt P24232 1-140) (domain or fragment; other documents disagree on this pair)”?
**A.** % EDC crosslinking: 92%; normalized % EDC crosslinking (per EDC-reactive residue beyond the ribosomal tunnel core): 4.6%

**Q.** “apoHmp_(1–55) ribosome-bound nascent chain (from UniProt P24232 1-55) (domain or fragment; other documents disagree on this pair)” was tested. Which % EDC crosslinking did it give?
**A.** 27.4%

**Q.** What about the normalized % EDC crosslinking (per EDC-reactive residue beyond the ribosomal tunnel core) of the same substance?
**A.** 5.5%
